± gives the standard deviation of the averaged measurements.
The sequences below were run on Saccharomyces cerevisiae (assay: protein stability index of tFT-peptide fusion (C-terminal peptide) (PSI (0-1 scale)); higher = more stable (slower turnover)). Conditions: genetic background: wild type; temperature: 30 C.
Experimental: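 Multiplexed protein stability (MPS) profiling in S. cerevisiae. Random 12-aa peptides (tFT-X12 library) are fused to the C-terminus of a sfGFP-mCherry tandem fluorescent timer, after mCherry and a GGGS linker. Cells are FACS-sorted into 8 mCherry/sfGFP bins and deep-sequenced. The protein stability index (PSI) is the read-weighted bin average, scaled from 0 (unstable) to 1 (stable). Only peptides with >10 reads are reported; cells were grown at 30 °C in SC-His with glucose.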
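Also: PSI is a weighted mean of sequencing reads over stability bins, variants kept only with over 10 reads, mCherry proximal and sfGFP distal, peptide attached via GGGS linker.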

For CNQRRWRGRKGY, which protein stability index is on record?
The protein stability index was 0.67 ± 0.01.

For CPCAWFSFLCFS, which protein stability index is on record?
The protein stability index was 0.666 ± 0.0066.

For CPPPFLCSPFVA, which protein stability index is on record?
Its protein stability index is 0.669 ± 0.022.

Which protein stability index does the source give for CPPPPPRPPLPP here?
Its protein stability index is 0.689 ± 0.056.

CPPVRLSLPPSL was tested. Which protein stability index did it give?
Its protein stability index is 0.68 ± 0.019.

CPSSFSALSNSR was tested. Which protein stability index did it give?
Its protein stability index is 0.671 ± 0.049.

With CQFHHHPDLTIK as the sequence, how does the protein stability index read?
The protein stability index was 0.609 ± 0.077.

CRASGGVSCGAS was tested. Which protein stability index did it give?
The protein stability index was 0.639 ± 0.046.

CRCTKVVVFGYP was tested. Which protein stability index did it give?
The protein stability index was 0.667 ± 0.022.

How did the protein stability index turn out when CRGPTQFAGPAP was run?
Its protein stability index is 0.68 ± 0.088.

CRILSPLPAIFV was tested. Which protein stability index did it give?
The protein stability index was 0.5298 ± 0.0045.

How did the protein stability index turn out when CRLILLVCNGAG was run?
Its protein stability index is 0.521 ± 0.027.

CRSGSGGGIRGR was tested. Which protein stability index did it give?
The protein stability index was 0.741 ± 0.011.

How did the protein stability index turn out when CRSRRPFGSDPI was run?
Its protein stability index is 0.69 ± 0.019.

With CRTGHCRLTSKM as the sequence, how does the protein stability index read?
Its protein stability index is 0.708 ± 0.019.

CRVWRAPSGWVG was tested. Which protein stability index did it give?
The protein stability index was 0.646 ± 0.03.

CRWRLGRLARCA was tested. Which protein stability index did it give?
The protein stability index was 0.515 ± 0.0084.

CSATVLSNCTFP was tested. Which protein stability index did it give?
Its protein stability index is 0.687 ± 0.051.

For CSEHFLIDTYPA, which protein stability index is on record?
The protein stability index was 0.679 ± 0.05.

How did the protein stability index turn out when CSLGCSLSALDS was run?
The protein stability index was 0.663 ± 0.025.

With CSMGGWPTERGI as the sequence, how does the protein stability index read?
The protein stability index was 0.6968 ± 0.0039.

CSPGLSGCVSYV was tested. Which protein stability index did it give?
The protein stability index was 0.665 ± 0.12.

For CSRDWRCNVRPV, which protein stability index is on record?
Its protein stability index is 0.715 ± 0.022.

For CSSEGFSLASMI, which protein stability index is on record?
Its protein stability index is 0.707 ± 0.025.

Which protein stability index does the source give for CSWNLLAHPPAQ here?
Its protein stability index is 0.744 ± 0.0093.

For CSYIQTSKTVVS, which protein stability index is on record?
The protein stability index was 0.756 ± 0.082.

With CTAVGFISFWMA as the sequence, how does the protein stability index read?
Its protein stability index is 0.629 ± 0.081.

Which protein stability index does the source give for CTIAPSIFFTRG here?
The protein stability index was 0.704 ± 0.11.

For CTVWGLWRGWTA, which protein stability index is on record?
The protein stability index was 0.7389 ± 0.0041.

With CVAGSGRGGVKR as the sequence, how does the protein stability index read?
Its protein stability index is 0.6327 ± 0.0037.

How did the protein stability index turn out when CVCHWTALCIQI was run?
Its protein stability index is 0.512 ± 0.013.

CVFSEMIVCDGG was tested. Which protein stability index did it give?
The protein stability index was 0.566 ± 0.049.

CVGQYVHWDLLV was tested. Which protein stability index did it give?
Its protein stability index is 0.549 ± 0.011.

For CVIGDKRRSKAI, which protein stability index is on record?
Its protein stability index is 0.6808 ± 0.0021.

For CVLPVSVIWVLR, which protein stability index is on record?
Its protein stability index is 0.575 ± 0.018.

For CVLVGGVPAGGG, which protein stability index is on record?
The protein stability index was 0.6174 ± 0.0028.

Which protein stability index does the source give for CVLWLISLLPDR here?
Its protein stability index is 0.563 ± 0.068.

With CVRPAPGSGGWQ as the sequence, how does the protein stability index read?
Its protein stability index is 0.6429 ± 0.0041.

Which protein stability index does the source give for CVTLPPHPLPPP here?
The protein stability index was 0.6623 ± 0.0058.

With CWGGRSYVYNIG as the sequence, how does the protein stability index read?
Its protein stability index is 0.662 ± 0.016.

Which protein stability index does the source give for CWNVLVPFDEVI here?
The protein stability index was 0.6 ± 0.08.

For CWSRLADSFVSL, which protein stability index is on record?
Its protein stability index is 0.683 ± 0.05.

How did the protein stability index turn out when CYGFCVRTYPAI was run?
Its protein stability index is 0.684 ± 0.037.

For CYLSVGVASWNS, which protein stability index is on record?
Its protein stability index is 0.6816 ± 0.0026.

For DAACDSGLSAEW, which protein stability index is on record?
Its protein stability index is 0.722 ± 0.015.

With DAAFRMTRLVVR as the sequence, how does the protein stability index read?
The protein stability index was 0.6172 ± 0.0015.

Which protein stability index does the source give for DAGRETGRLVGG here?
The protein stability index was 0.708 ± 0.032.

DAIHSPALLASP was tested. Which protein stability index did it give?
The protein stability index was 0.715 ± 0.092.

With DALVQVFANVGA as the sequence, how does the protein stability index read?
The protein stability index was 0.6629 ± 0.0059.

DALWLAFFDVID was tested. Which protein stability index did it give?
The protein stability index was 0.711 ± 0.068.

How did the protein stability index turn out when DARLSPVRNRLF was run?
Its protein stability index is 0.652 ± 0.17.

For DASVIPAKPRRS, which protein stability index is on record?
Its protein stability index is 0.69 ± 0.041.

For DAVVPSSTVPLL, which protein stability index is on record?
The protein stability index was 0.7001 ± 0.0022.

For DCDVLCGSGRRR, which protein stability index is on record?
Its protein stability index is 0.703 ± 0.026.

With DCLFQSKLNTYD as the sequence, how does the protein stability index read?
The protein stability index was 0.676 ± 0.041.

How did the protein stability index turn out when DCNQLRGRAFRL was run?
The protein stability index was 0.719 ± 0.034.

DCPAVLLYAVNW was tested. Which protein stability index did it give?
The protein stability index was 0.501 ± 0.054.

How did the protein stability index turn out when DCVACFFFYSGG was run?
The protein stability index was 0.599 ± 0.0099.

For DCWAGGGLCGWG, which protein stability index is on record?
The protein stability index was 0.719 ± 0.05.

With DDCFCGRFWVVV as the sequence, how does the protein stability index read?
Its protein stability index is 0.6787 ± 0.0032.

For DEEVGWGRGGGW, which protein stability index is on record?
Its protein stability index is 0.673 ± 0.011.

How did the protein stability index turn out when DENLYGGFRTSM was run?
Its protein stability index is 0.725 ± 0.0078.

How did the protein stability index turn out when DFCPCPRWFLRR was run?
Its protein stability index is 0.715 ± 0.086.

With DFIAGGSRPFLV as the sequence, how does the protein stability index read?
The protein stability index was 0.715 ± 0.015.

With DFIEINFDLFPP as the sequence, how does the protein stability index read?
Its protein stability index is 0.6382 ± 0.00098.

How did the protein stability index turn out when DFLRCPPLFEFS was run?
Its protein stability index is 0.721 ± 0.087.

DFSLQILALCYF was tested. Which protein stability index did it give?
The protein stability index was 0.558 ± 0.018.

For DFVRVVGDLRWE, which protein stability index is on record?
The protein stability index was 0.587 ± 0.041.

Which protein stability index does the source give for DGAVCSAFASIF here?
Its protein stability index is 0.701 ± 0.0089.

DGGGGGRAPRVR was tested. Which protein stability index did it give?
The protein stability index was 0.726 ± 0.1.

How did the protein stability index turn out when DGGIVTVSLGWC was run?
Its protein stability index is 0.662 ± 0.064.

For DGKNQGKAEGTK, which protein stability index is on record?
Its protein stability index is 0.693 ± 0.041.

How did the protein stability index turn out when DGSPLGSIQQAP was run?
The protein stability index was 0.673 ± 0.013.

With DGTRVSFLGHKG as the sequence, how does the protein stability index read?
The protein stability index was 0.665 ± 0.053.

DGYYRIVRPEAI was tested. Which protein stability index did it give?
The protein stability index was 0.626 ± 0.018.

With DHPFFCWDGVVK as the sequence, how does the protein stability index read?
The protein stability index was 0.687 ± 0.069.

How did the protein stability index turn out when DHSWPSTDRVLL was run?
The protein stability index was 0.676 ± 0.0096.

Which protein stability index does the source give for DHVSTVEQKLFF here?
The protein stability index was 0.701 ± 0.031.

Which protein stability index does the source give for DIISSKENWVEI here?
The protein stability index was 0.68 ± 0.059.

For DINHTSKKKIYI, which protein stability index is on record?
Its protein stability index is 0.663 ± 0.015.

For DINNDQKCTLMK, which protein stability index is on record?
The protein stability index was 0.71 ± 0.013.

DIRRWQWWFMVR was tested. Which protein stability index did it give?
Its protein stability index is 0.613 ± 0.082.

Which protein stability index does the source give for DKCRWWRHGVWR here?
The protein stability index was 0.687 ± 0.019.

For DKDSTSRYSKPW, which protein stability index is on record?
Its protein stability index is 0.725 ± 0.022.

With DKFEEENIKKKK as the sequence, how does the protein stability index read?
The protein stability index was 0.74 ± 0.026.

Which protein stability index does the source give for DKGIHKREKFFT here?
Its protein stability index is 0.734 ± 0.0054.

DKNVREGDRETR was tested. Which protein stability index did it give?
Its protein stability index is 0.685 ± 0.017.

Which protein stability index does the source give for DKRHQSALSFFI here?
Its protein stability index is 0.736 ± 0.0089.

For DKYFRYKEERTY, which protein stability index is on record?
The protein stability index was 0.766 ± 0.16.

Which protein stability index does the source give for DLERRKGTGVWR here?
The protein stability index was 0.6366 ± 0.0051.

For DLGARWLFLLQT, which protein stability index is on record?
Its protein stability index is 0.622 ± 0.012.

With DLLWASLCLRSY as the sequence, how does the protein stability index read?
The protein stability index was 0.679 ± 0.021.

DLPATSAETAPK was tested. Which protein stability index did it give?
Its protein stability index is 0.699 ± 0.058.

For DLPRCTLSVEDT, which protein stability index is on record?
Its protein stability index is 0.703 ± 0.0078.

DLPVIGHRLPLF was tested. Which protein stability index did it give?
The protein stability index was 0.684 ± 0.012.

With DLPVPRPGTLQV as the sequence, how does the protein stability index read?
Its protein stability index is 0.655 ± 0.045.

DLRFLQFGFIPW was tested. Which protein stability index did it give?
The protein stability index was 0.752 ± 0.043.

Which protein stability index does the source give for DLSMIPEWICIV here?
The protein stability index was 0.547 ± 0.054.

Reference: the supplement of paper PMC10724198
